Patent US20080300206A1
Blank lines part the entries; values can stand above or below the substance they belong to.

Molecular target: recombinant wild-type human alpha-synuclein (human) (UniProt P37840)
Assay: cell-based or functional assay

Sequence of Polo like kinase 2 (PLK2) (Q9NYY3 whole entry): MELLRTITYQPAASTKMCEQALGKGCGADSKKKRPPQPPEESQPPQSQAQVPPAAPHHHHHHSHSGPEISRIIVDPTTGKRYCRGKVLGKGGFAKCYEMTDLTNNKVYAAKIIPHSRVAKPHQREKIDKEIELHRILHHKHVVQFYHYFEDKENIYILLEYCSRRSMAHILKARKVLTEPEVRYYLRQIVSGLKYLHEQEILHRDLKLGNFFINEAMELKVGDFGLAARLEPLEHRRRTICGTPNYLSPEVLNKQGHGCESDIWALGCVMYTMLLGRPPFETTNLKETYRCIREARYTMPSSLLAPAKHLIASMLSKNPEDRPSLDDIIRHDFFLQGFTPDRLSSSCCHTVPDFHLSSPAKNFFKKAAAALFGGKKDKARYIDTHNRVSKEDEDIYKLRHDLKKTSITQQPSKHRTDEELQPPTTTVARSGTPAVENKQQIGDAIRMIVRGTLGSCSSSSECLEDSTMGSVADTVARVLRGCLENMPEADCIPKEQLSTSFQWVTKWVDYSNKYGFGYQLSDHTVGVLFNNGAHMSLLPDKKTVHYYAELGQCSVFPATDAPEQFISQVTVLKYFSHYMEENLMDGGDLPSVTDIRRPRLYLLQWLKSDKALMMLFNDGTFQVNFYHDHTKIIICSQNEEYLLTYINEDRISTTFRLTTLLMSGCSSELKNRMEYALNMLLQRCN
Sequence of G protein-coupled receptor kinase 6 (GRK6) (P43250 whole entry): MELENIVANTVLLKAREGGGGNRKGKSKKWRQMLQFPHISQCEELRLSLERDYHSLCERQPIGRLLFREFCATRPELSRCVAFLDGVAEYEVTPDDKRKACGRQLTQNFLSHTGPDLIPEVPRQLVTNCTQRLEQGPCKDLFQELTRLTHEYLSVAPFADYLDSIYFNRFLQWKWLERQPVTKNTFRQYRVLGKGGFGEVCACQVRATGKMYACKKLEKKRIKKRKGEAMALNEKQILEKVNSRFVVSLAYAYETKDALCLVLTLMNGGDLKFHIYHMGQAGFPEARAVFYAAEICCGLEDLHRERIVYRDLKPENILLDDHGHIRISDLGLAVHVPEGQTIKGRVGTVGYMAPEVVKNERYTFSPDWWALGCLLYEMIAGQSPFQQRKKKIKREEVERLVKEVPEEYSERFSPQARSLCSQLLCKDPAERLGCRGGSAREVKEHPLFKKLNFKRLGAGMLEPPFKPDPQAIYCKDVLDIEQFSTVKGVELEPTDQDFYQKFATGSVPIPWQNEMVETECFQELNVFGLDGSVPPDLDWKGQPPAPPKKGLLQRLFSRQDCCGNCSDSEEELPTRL
Sequence of Aortic preferentially expressed gene 1 (APEG1) (Q15772 whole entry): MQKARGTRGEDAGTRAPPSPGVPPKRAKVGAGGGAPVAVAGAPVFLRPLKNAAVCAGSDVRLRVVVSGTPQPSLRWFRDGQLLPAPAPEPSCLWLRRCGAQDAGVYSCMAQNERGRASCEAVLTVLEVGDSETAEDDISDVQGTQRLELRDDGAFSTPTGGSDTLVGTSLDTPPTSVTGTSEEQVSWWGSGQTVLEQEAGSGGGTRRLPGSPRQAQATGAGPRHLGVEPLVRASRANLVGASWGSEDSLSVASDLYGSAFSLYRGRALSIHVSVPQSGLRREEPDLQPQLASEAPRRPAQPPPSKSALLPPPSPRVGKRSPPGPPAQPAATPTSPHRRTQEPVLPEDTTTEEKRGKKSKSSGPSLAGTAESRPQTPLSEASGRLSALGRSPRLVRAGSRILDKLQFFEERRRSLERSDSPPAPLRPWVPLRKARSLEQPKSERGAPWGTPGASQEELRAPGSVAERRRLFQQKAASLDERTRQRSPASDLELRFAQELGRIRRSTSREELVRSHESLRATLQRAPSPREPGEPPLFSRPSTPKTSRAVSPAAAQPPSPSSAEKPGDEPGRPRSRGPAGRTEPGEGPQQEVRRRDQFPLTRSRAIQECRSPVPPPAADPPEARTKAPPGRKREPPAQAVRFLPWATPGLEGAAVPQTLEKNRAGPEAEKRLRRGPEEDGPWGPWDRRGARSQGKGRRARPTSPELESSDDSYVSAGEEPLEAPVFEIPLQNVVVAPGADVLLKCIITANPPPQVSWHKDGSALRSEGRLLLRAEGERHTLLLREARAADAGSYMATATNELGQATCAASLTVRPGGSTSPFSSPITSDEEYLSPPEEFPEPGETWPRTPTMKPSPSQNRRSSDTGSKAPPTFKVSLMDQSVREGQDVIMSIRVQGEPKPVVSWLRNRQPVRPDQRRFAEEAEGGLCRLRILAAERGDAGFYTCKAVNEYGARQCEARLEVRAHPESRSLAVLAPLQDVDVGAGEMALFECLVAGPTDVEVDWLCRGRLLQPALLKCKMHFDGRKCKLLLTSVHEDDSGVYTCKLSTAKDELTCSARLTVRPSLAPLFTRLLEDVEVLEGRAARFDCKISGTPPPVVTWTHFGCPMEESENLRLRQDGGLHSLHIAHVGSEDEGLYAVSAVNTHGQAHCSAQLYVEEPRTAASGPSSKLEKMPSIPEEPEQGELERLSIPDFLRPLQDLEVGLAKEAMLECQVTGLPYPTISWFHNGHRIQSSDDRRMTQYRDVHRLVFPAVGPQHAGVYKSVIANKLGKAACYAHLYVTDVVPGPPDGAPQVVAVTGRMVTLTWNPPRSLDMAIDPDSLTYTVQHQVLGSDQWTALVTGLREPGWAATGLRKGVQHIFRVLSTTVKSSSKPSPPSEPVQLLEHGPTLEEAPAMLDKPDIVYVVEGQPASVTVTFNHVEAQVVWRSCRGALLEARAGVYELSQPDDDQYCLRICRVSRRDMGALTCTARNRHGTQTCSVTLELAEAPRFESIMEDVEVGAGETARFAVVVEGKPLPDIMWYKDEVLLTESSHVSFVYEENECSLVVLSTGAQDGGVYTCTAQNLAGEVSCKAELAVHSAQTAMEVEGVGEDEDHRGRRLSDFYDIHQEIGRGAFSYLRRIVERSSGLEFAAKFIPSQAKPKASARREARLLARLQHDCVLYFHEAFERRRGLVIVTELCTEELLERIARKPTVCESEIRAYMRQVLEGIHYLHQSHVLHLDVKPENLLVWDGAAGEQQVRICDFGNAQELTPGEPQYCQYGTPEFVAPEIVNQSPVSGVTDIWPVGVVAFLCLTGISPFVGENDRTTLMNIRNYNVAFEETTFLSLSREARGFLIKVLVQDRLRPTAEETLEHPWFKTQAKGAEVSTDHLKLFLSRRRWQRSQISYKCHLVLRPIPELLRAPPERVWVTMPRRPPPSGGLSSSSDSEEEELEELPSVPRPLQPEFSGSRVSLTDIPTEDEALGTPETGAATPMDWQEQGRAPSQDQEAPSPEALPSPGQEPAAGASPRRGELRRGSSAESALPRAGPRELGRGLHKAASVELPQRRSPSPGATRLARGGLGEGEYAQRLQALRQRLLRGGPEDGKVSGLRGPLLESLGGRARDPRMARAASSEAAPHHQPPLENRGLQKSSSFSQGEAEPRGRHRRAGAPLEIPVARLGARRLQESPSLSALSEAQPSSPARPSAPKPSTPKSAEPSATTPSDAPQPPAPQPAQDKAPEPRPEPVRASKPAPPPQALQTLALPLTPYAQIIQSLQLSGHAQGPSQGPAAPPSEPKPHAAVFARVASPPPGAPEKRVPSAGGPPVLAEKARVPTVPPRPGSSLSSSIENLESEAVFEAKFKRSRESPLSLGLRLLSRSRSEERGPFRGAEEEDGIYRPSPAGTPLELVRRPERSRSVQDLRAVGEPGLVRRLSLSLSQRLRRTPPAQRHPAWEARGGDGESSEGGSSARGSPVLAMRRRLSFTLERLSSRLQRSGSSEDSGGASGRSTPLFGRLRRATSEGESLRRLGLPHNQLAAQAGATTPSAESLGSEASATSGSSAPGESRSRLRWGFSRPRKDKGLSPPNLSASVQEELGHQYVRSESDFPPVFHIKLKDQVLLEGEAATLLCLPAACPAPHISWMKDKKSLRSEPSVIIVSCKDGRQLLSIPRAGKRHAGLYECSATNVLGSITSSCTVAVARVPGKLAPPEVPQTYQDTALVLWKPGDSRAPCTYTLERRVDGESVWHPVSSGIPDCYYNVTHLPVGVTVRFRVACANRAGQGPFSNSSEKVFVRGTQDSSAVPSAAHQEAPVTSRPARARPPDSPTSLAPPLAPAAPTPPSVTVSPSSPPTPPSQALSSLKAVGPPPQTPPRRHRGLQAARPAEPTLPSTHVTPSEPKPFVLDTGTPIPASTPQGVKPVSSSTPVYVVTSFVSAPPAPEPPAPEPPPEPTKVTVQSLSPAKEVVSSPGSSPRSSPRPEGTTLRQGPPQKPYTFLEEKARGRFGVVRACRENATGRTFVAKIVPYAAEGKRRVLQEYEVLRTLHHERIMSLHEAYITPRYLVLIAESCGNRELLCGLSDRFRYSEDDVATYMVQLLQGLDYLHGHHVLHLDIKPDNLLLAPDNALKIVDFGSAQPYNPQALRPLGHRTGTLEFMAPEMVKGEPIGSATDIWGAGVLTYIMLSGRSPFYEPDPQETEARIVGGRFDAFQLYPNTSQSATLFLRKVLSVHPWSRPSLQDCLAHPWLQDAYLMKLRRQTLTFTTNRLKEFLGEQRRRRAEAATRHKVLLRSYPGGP
Sequence of CDC7 cell division cycle 7-like 1 (CDC7L1) (O00311 whole entry): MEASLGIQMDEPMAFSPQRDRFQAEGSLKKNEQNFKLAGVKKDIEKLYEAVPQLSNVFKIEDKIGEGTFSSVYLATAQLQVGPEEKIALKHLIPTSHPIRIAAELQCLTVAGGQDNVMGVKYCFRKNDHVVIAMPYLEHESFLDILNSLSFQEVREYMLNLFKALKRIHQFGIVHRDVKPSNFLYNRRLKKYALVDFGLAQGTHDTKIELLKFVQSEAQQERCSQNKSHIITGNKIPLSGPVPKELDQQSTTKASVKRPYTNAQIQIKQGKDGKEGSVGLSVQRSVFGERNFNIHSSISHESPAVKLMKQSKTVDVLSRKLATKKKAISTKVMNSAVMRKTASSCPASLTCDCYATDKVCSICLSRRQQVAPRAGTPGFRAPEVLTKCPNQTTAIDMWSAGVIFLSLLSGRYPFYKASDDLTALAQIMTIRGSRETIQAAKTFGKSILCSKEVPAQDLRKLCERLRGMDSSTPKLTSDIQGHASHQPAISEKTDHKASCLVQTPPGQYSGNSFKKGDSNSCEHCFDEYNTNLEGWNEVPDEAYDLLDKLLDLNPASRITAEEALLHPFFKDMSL

Substance: Polo like kinase 2 (PLK2) (from UniProt Q9NYY3 1-685) (enzyme)
fold increase of percent phospho-synuclein, cells transfected with PLK2 cDNA: 4 fold
fold increase of phospho-synuclein over untransfected cells, ELISA, 293-synuclein cells: 4.3 fold
percent phospho-synuclein, ELISA, cells transfected with PLK2 cDNA: 33.2%

Substance: Protein kinase, cGMP-dependent, regulatory, Type I (PRKG1) (from UniProt Q13976 2-671) (enzyme)
percentage of phospho-synuclein, ELISA, PEAK-Syn cells transfected with kinase cDNA: 8.9%

Substance: CDC7 cell division cycle 7-like 1 (CDC7L1) (from UniProt O00311 1-574) (enzyme)
percentage of phospho-synuclein, ELISA, PEAK-Syn cells transfected with kinase cDNA: 8.9%

Further lines, results first:

percentage of phospho-synuclein, ELISA, PEAK-Syn cells transfected with kinase cDNA: 8.9%
Substance: Aortic preferentially expressed gene 1 (APEG1) (from UniProt Q15772 1-3267) (enzyme)

fold increase of phospho-synuclein, HEK-synuclein cells: 2 fold
percent phospho-synuclein, ELISA, cells transfected with GPRK6 cDNA: 18.9%
Substance: G protein-coupled receptor kinase 6 (GRK6) (from UniProt P43250 1-576) (enzyme)
